Laboratory results as given in US5977056.
Each block holds one substance with its values, some of them ahead of it.

Tests used:
[1] = target: fibrinogen (species not stated)
[2] = target: fibrinogen (species not stated); remark: listed apart in the source
[3] = target: human fibrinogen (in citrated whole blood, plasma or platelet-rich plasma) (human) (UniProt P02671)
[4] = target: fibrinogen (species not stated); remark: listed apart in the source

Specific Activity (Units/mg), Stage III material [1]: 1400 Units/mg
Substance: anterior gland hementin (Haementeria ghilianii) (enzyme)

Substance: posterior gland hementin (Haementeria ghilianii) (enzyme)
Specific Activity (Units/mg), Stage II material [2]: 11500 Units/mg

Substance: purified hementin (gland of origin not stated for the experiment) (enzyme)
deaggregation of pre-formed ADP-induced platelet aggregates (aggregometer) [3]: 3 min | loss of coagulability of platelet-rich plasma with thrombin [3]: 10 min | fibrinogenolysis assay: fibrinogen breakdown products on HPLC (RP300-C8) [4]: 90%
